The record followed here is US6562587 (ASTRA PHARMA, dated 2003).

Non-standard residues stand in square brackets, D forms with d. No end group written: not given here.

The target in test [1] is delta opioid receptor naturally expressed by NG 108-15 cells (UniProt P32300). The test is described as follows: Table 1, NG 108-15 column (method not described).
Test [2] addresses T1, K56 receptor (mouse delta opioid receptor encoded by clone K56) (mouse, UniProt P32300 1-372).
T1 construct: Expressed transiently in Cos-1 cells from plasmid pCDM8-K56; 371 amino acids; also called K56 protein; Cos K56
The test is described as follows: radioligand binding, 1 nM ^3H-DTLET on monolayer Cos-1 cells transfected with K56.

For the molecule “cyclic [D-penicillamine^2, D-penicillamine^5]-enkephalin (peptide)”, the PKi in test [1] came to 8.3.

B1: Tyr-D-Thr-Gly-Phe-Leu-Thr (DTLET), labelled with tritium (peptide)
peptide: Y[dT]GFLT
modifications: not fully specified
notes: Synthetic delta-selective enkephalin analogue used as the radioligand; also called ^3H-DTLET
Turning to B1, the signal over background in test [2] came out at 6 fold.
